Test: yeast display, Sf9 membrane polyspecificity reagent, FACS + sequencing; frameworks hold sequencing errors
In short: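 Galactose-induced (36–48 hours) yeast carrying a synthetic nanobody display library were exposed to 10% biotinylated, detergent-solubilized Sf9 membrane reagent at 4 °C for 1 hour. FACS followed streptavidin microbead enrichment, using low and high (top ~1%) gates for expression (anti-HA) and reagent binding (streptavidin). Colony PCR, MiSeq 2 × 250 sequencing and CDR-length filtering followed. Labels for polyreactivity reflect the gate of origin.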

| Sequence | polyreactivity (PSR sort gate) |
| --- | --- |
| QVQLVESGGGLFQAGGSLRLSCAASGRIFHGYDMGWYRQAPGKERELVAAITWRGGSTYADSVKGRFTISRDNGKNTVYLQMNSLKPEDTAVYYCAADTVYYGYFFYYWGQVTQVTVSS | high polyreactivity |
| QVQLVESGGGLFQAGGSLRLSCAASGRTFCFYTMGWYRQAPGKASELVAAISSGGSTNYADSVKGRFTISRDNAKNTVYLQMNSLKPEDTAVYYCNARFPVCPSEDAVWYYPKFDYWGQGTQVTVSW | low polyreactivity |
| QVQLVESGGGLFQAGGSLRLSCAASGRTFCPYTMGWYRQAPGKERELVAVISSNDGSTDYADSVKGRFTFSRDNAKNTVYLQMNSLKPEDTAVYYCAAEVYFGYYGGYGYWGQGTQVTVSS | low polyreactivity |
| QVQLVESGGGLFQAGGSLRLSCAASGRTFSHNGMGWYRQAPGKERELVATINRGGNTYYADSVKGRFTISRDNAKNTVYLQMNSLKPEDTAVYYCAARRSFLFDEGNYWGQGTQVTVSS | low polyreactivity |
| QVQLVESGGGLFQAGGSLRLSCAASGRTFYKYAMGWYRQAPGKERELVATITSGGSTNYADSVKGRFTISRDNAKNTVYLQLNCLKPEETAVYYFAARGHIYKIRDPYWTHDFWGQGTQVTVSS | low polyreactivity |
| QVQLVESGGGLFQAGGSLRLSCAASGRTLLGNAMVWYRQAPGKEREFVAAISYRGGSTYYADSVKGRFTISRDYAKNTVYLQMKSLKPEDTAVYYCAASSFKYSRFDYWGQGTQVTVSS | low polyreactivity |
| QVQLVESGGGLFQAGGSLRLSCAASGRTLRRNALGWYRQAPWKERELVAAISTGGGSTYYADSVKGRFTISRDYAKKTVYLQINSLNPEDSAVYYCAAVYSQSTKRYELYYWGQGTQVTVSS | high polyreactivity |
| QVQLVESGGGLFQAGGSLRLSCAASGRTVVGYAMGWYRQAPGKERELVAAFTGSGGRTYDADSVKGRFTISRDNAKNTVYLQMKSLKPEDTAVYYCNNVYRFSSGAYLYDYWVQGTQVTVSS | high polyreactivity |
| QVQLVESGGGLFQAGGSLRLSCAASGSIFAWYAMGWYRQAPGKERELVAVITSGGSTNYADSVKGRFTISRDNEKNTVYLQMNSLKPEDTAVYYCAAGSYYSWYPFDYWGQGTQVTVSS | low polyreactivity |
| QVQLVESGGGLFQAGGSLRLSCAASGSIFRAYAMVWYRQAPGKERELVAAITRGGSTNYADSVKGRFTISRDNAKNTVYLQMNSLKPEDTAVYYCAAQNYWYYPRRFDYWGQGTQVTVSS | high polyreactivity |
| QVQLVESGGGLFQAGGSLRLSCAASGSIFRYYAMGWYRQAPGKERELVARISWRGGSTYADSVKGRFTISRDNAKNTVYLQMNSLKPEDTAVYYCAGVLAVGSYDYWGQGTQVTVSS | low polyreactivity |
| QVQLVESGGGLFQAGGSLRLSCAASGSIFVGYAMGWYRQAPGKERELVAAITNSGGRTYYADSVKGRFTISRDNAKNTVYLQMNSLKPEDTAVYYCNRVTGKYRYWVGFEYWGQGTQVTVSS | high polyreactivity |
| QVQLVESGGGLFQAGGSLRLSCAASGSISIKNAMGWYRQAPGKERELVATITYNGGSTYYADSVKGRFTISRDNAKNTVYLQMNSLKPEDTAVYYCARDAFEPYDVGEYYYWGQGTQVTVSS | low polyreactivity |
| QVQLVESGGGLFQAGGSLRLSCAASGSTFIYYVMGWYRQAAGKVWELVAAISTSGGRTYYADSVKGRYTISRDNAMNTVSLLMNSLKPVVTAVYYCAAVARTNGSIKFESWGQGTQVTVSS | high polyreactivity |
| QVQLVESGGGLFQAGGSLRLSCAASGSTFPYNAMGWYRQAPGKERELVAAITWRAGRTYYADSVKGRFTISRDNAKNTVYLQMNSLKPEDTAVYSCAKSYQRGVNHYEYWGQGTQVTVSS | high polyreactivity |
| QVQLVESGGGLFQAGGSLRVSCAASGRIFFPYAMGWYRQAPGKERELVASIRGGGSTSYADSVKGRFTFSRDNAKNTVYLQMNSLKPEDTAVYYCAATPQAYWVLWSTYYTYYYWGQGTQVTVSS | high polyreactivity |
| QVQLVESGGGLFQAGGSLSLSCAASGRTLWLYTKRWYTQAPGKEWELVARIRSGGSTYYADSVKGRFTISRDNAKNTVYLQMNSLKPEDTAVYYCAVGSRYYGRGYYYWGQGTQVTVSW | high polyreactivity |
| QVQLVESGGGLFQAGGTHRLSCAASGFISKYYAMGWYRQAPGKERELVSSISRDGSTSYADSVKGRFTISRDNAKNTVYLQMNSLKAEDSAVYYCAAPSYRTRYYYWGQGTQVTVSS | high polyreactivity |
| QVQLVESGGGLFQAGRSLRISCAASGFIFSQNTMGWYRQAPGKEWELVAAISKSRGTTYYADSVKGRYTITRDNAKNTVYLQMYSLKPEDTAVYYCAARIQWPTWSLYYYWGQGTQVTVSS | high polyreactivity |
| QVQLVESGGGLFQAGVSLRLSCAASGSTIGVNAMGWSRKAPGKERELVAAISRGGGRTYYADSVKWRFTISRDIAKKTVYLQMICLKPEDTAVYYCNTDFGARMGYWGQGTEVTVSS | high polyreactivity |
| QVQLVESGGGLFQARGSLRLSCAASGLTFWYYDMGWYRQAPGKERELFAAINSGGSTYYADSEKGRFTISRDNAKNTVYLEINRLKPEDTAVYYCNKDFSKTWRYASYYYWGQGTQVTVSS | low polyreactivity |
| QVQLVESGGGLFQEGGSLRLSCAASGSIFNGYAMGWYRQAPGKEREFVDAITFSATSTYYADSVKRRFTLSRDNAKNTVYLQMNSLKPEDTAVYYCAVAVPLSRYWWRRTYDYWGQGTQVTVSS | low polyreactivity |

| Sequence | polyreactivity (PSR sort gate) |
| --- | --- |
| QVQLVESGGGLFQEGGSLRLSCAASGSTFSVNAMGWYRQAPGKERELVAAISKRVGSTYYADSVKGRFTISRDNAKNTVYLQMNSLKPEDTAVYYCAAVIVHYGRAYDYWGQGTQVTVSS | high polyreactivity |
| QVQLVESGGGLGQAGGSLRLSCAASGFIFGSYAMGWYRQAPGKARELVAAISWSGASTYYADSVKGRFTISRDNAKKTVYLQMNSLIPEDTAVYYCAAVSRYGWYDYWGQGTQVTVSS | high polyreactivity |
| QVQLVESGGGLGQAGGSLRLSCAASGFIFVWYAMGWYRQAPGKERELVAAINWSGGHTYYADSVKGRFTISRDNSKNTVYLQMNSLKPEDTAVYYWNADSLWYWFYPYNYWGQGTQVTVSS | low polyreactivity |
| QVQLVESGGGLGQAGGSLRLSCAASGFTFSSNAMGWYRQAPGNERALVAAISGNGGITYYADSVKGRFTISRDNAKNTVYLQMNCLKPEDTAVDYCAAEAYRYAWYDYWGQGTQVTVSS | high polyreactivity |
| QVQLVESGGGLGQAGGSLRLSCAASGFTYYYYAMGWYIQAPRKDRELVAAISGGGGSTYYADSVKGRFTLSRDNAKNTVYLQMNSLKQVDTAVYYCAAVGSWRYYYDYDYWGQGTQVNVSS | high polyreactivity |
| QVQLVESGGGLGQAGGSLRLSCAASGLTFTKNVMGWSSQAPGKERELVAVISRSGGSTYYADSVKGRFTISRDNAKNTVYLQMISLKPEDTAVYYCNVKGPGPSRGNYWGQGTQVTVSS | low polyreactivity |
| QVQLVESGGGLGQAGGSLRLSCAASGRIFRYNAMGWYRQAPGKERELVAAITSGTGTNYADSVKGRFTISRDNAKNTVYLQMNSLKPEDTAVYYCNKVRKSYRYDYWGQGTQVTVSS | low polyreactivity |
| QVQLVESGGGLGQAGGSLRLSCAASGRIFVGYAMGWYRQAPGKERELVAAIDVGGGSTYYADSVKGRFTISRDNAKNTVYLQMNSLKPEDTAVYYCAADAFGWSSYWPYDYWGQGTQVTVSS | low polyreactivity |
| QVQLVESGGGLGQAGGSLRLSCAASGRIFYSYAMGWSRQAPGKESELVAAITESGGSTNYADSVKGRFTISRDNAKNTVYLQMNSLNPEDTAVFYCNARYKLTFNLYNYWGQGTQVTVSS | low polyreactivity |
| QVQLVESGGGLGQAGGSLRLSCAASGRTFRYYAKGWYRQAPGKERELVAAINRGGSTSYADSVKGRFTISRDNAKNTVYLQMNSLKPEDTAVYYCNVDKYRLVGFHSPYDYWGQGTQVTVSS | high polyreactivity |
| QVQLVESGGGLGQAGGSLRLSCAASGSIFSSYAMGWYRQAPGKERELVAAISQSGGDTYYADSVKGRFTISRDNAKNTVYLQMNSLKPEDTAVYYSAASVWYYPMDYWGQGTQVTVSS | low polyreactivity |
| QVQLVESGGGLGQAGGSLRLSCAASGSTFGRYVMGWYRQAPGKERELVAAISKNSGSTYYAYSVKGRFTISRDNAKNTVYLQMNSLKPEDTAVYYCAADWRSKGYDSLGQGTQVTVSS | high polyreactivity |
| QVQLVESGGGLIQAGGSLRLSCAASGSILSDYVMAWYRQAPGKERELVAAITNDDSTNYADSVKGRFTISRDNAKNTVYLQMNSLKPEETAVYYCAAEWLVVYYISTGESYKVEFDYCGQGTQVTVSS | low polyreactivity |
| QVQLVESGGGLLKAGGSLRLTCAASGRIFSSYDMGWYRQAPGKERELVAAISNSGGNTYYADSVKGRFTISRDNAKNTVYLQMNSLKPEDTAVYYCAAVAFWAIFDFYWYYPYEYDYWGQGTQVTVSS | high polyreactivity |
| QVQLVESGGGLLKAGRSLRLSCAASGRIFGYYAMGWYRQAPGKERELVAAISTGGGRTYYADSVKGRFTISRDNAKNTVYLQMNSLKPEDTAVYYCAARLKWGWPTYDYWGQGTQVTVSS | high polyreactivity |
| QVQLVESGGGLLQAAGSLRLSCAASGIIFHIYAMGWYRQAPGKERELVAAISTGSSTYYADSVKGRFTISRDNAKNTVYLQMKSLKPEDTAVYYCNAVSRLLWVKGFDYWGQGTQVTVSS | low polyreactivity |
| QVQLVESGGGLLQAGGSLRISCAASVSIFYHYAMGWYRQAPGKERELVAAISWRGGSTNYADSVKGRFTISRDNAKNTVYLQMNSLKPEDSAVYYCNAVQRRREYYWGQGTQVTVSS | high polyreactivity |
| QVQLVESGGGLLQAGGSLRLSCAASGIFGRYAMGWYRQAPGKERELVAGISWSGVRTYYADSVKGRFTISRDNAKNTVYLQINSLKPEDTSVYYCPARPWNDGYYVGRFHMDYWGQGTQVTVSS | low polyreactivity |
| QVQLVESGGGLLQAGGSLRLSCAASGIIFRGYSMGWYRPAPGKERELVASITRRGGSTRYADSVKGRFTISRDNAKNTVYLQMNSLKPEDTPVYYCAAVGVGKTSTAYGYWGQGTQVNVSS | high polyreactivity |
| QVQLVESGGGLLQAGGSLRLSCAASGITFGRNTMGWYRQAPGKERELVAAINSGGSTTYADSVKGRFTISRDNAKNTVYLQMISLKPEDSAVYYCNKSSTGWTATYDYWGQGTQVTVSS | low polyreactivity |
| QVQLVESGGGLLQAGGSLRLSCAASGITFRFYAMGGYRQAPGKEREFVAAISCRGGRTYYADSVKGRFTISRDNAKNTVYIQMNSLKPEDTAVYYCAADFYYRTVATVTSVARYDYWGQGTQVTVSS | high polyreactivity |
